Experimental data taken from publication PMC9951844 (Nature Communications, 2023).
Changes are numbered by the printed parent chain.

Experiments:
SARS-CoV-2 wildtype S1 = SARS-CoV-2 wildtype S1 (SARS-CoV-2 wildtype (Wuhan), UniProt P0DTC2)
[1] = target: SARS-CoV-2 Beta (B.1.351) S1 (SARS-CoV-2 Beta (B.1.351), strain)
[2] = target: SARS-CoV-2 Delta (B.1.617.2) S1 (SARS-CoV-2 Delta (B.1.617.2), strain)
[3] = target: SARS-CoV-2 Gamma (P.1) S1 (SARS-CoV-2 Gamma (P.1), strain)
[4] = target: SARS-CoV-2 Kappa (B.1.617.1) spike ECD (SARS-CoV-2 Kappa (B.1.617.1), strain)
[5] = target: SARS-CoV-2 Lambda (C.37) RBD (SARS-CoV-2 Lambda (C.37), strain)
[6] = target: SARS-CoV-2 Omicron BA.1 (B.1.1.529) RBD (SARS-CoV-2 Omicron BA.1 (B.1.1.529), strain)

Measured: binding result

B1: YB12-266 (antibody, V domains shown)
VH: EVQLVESGGGLIQPGGSLRLSCAASGLTVSSNYMSWVRQAPGKGLEWVSLIYSGGTTSYADSVKGRFTISRDNSKNTLYLQMNSLRVEDTAVYYCARDLVVYGMDVWGQGTTVTVSS
VL: AIQLTQSPSSLSASVGDRVTITCRASQGISSYLAWYQQKPGKAPKLLIYAASTLQSGVPSRFSGSGSGTDFTLTISSLQPEDFATYYCQLLNSYPLTFGGGTKVEIK
not listed: [6]
binds: all other assays above

B2: YB9-112 (antibody, V domains shown)
VH: EVRLVESGGGLIQPGGSLRLSCAASGLIVSSNYMTWVRQAPGKGLEWVSVIYSGGSTFYADSVKGRFTISRDNSKNTLFLQMSSLRAEDTAIYYCARDLDYYGMDVWGQGTTVTVSS
VL: DIQLTQSPSFLSASVGDRVTITCRASQGVASYLAWYQQKPGKAPKLLIYAASTLQSGVPSRFSGSGSGTEFTLTISSLQPEDFATYYCQHLNSYPPITFGQGTRLEIK
not listed: [6]
binds: all other assays above

B3: YB12-195 (antibody, V domains shown)
VH: B2 VH with R3Q, L27F, T35N, F79Y, S83N, I92V, D100Q, Y101R, Y102D
VL: SYVLTQPPSVSVAPGKTARITCGGNNIGSKNVHWYQQKPGQAPVLVIYYDSDRPSGIPERFSGSNSGNTATLTVSRVEAGDEADYYCQLWDSSSDHVVFGGGTKLTVL
not listed: [1] | [6]
binds: all other assays above

B4: YB13-221 (antibody, V domains shown)
VH: EVQLVESGGGLVQPGGSLRLSCAASGFIVSSRYMSWVRQAPGKGLEWVSVIYSDGRSYYADSVKGRFIISRDNFKNALYLQMNSLRAEDTAVYYCARDSPYRTGWFLGQSDAFDIWGQGTMVTVSS
VL: DIQMTQSPSTLSASVGDRVTITCRASQSISSWLAWYQQKPGKAPNLLIYKASSLESGVPSRFSASGSGTEFTLTISSLQPDDFATYYCQQYNSYPPSFGQGTKVEIK
not listed: [6]
binds: all other assays above

B5: YB13-216 (antibody, V domains shown)
VH: QVQLVESGGGVVQPGSSLRISCAASGFTFSSYGMHWVRQGPGKGLEWVAVIWDDGSGKHYAVSVKGRFTISRDNSKNTLYLQMNSLRVEDTAVYYCARDEGTTVTFFDYWGQGTLVTVSS
VL: DIQMTQSPSSLSASVGDRITITCRASQSIRTYLNWYQQKPGKAPKLLIYTSSSLQSGVPSRFSGSGSGTDFTLTISSLQPEDFATYFCQQSYSTPPWTFGQGTKVEIK
binds: all assays above

B6: YB13-275 (antibody, V domains shown)
V domain 1: QITLKESGPRLVKPTQTLTLTCTFSGFSLATAGMSVGWIRQPPGKALEWLALIYWDDDDRYSPSLKSRLTITKDTSRNQVVLTMTNMDPVDTATYYCIHPRFYSDPSGYYFIWGQGTMVTVSS
V domain 2: SYELTQPPSVSVSPGQTARITCSGDALAKQYAYWYQQKPGQAPVQVMYKDGERPSGIPERFSGSKSGTTVTLTISAVQAEDEADYFCQSADNSGFYVFGTGTQVTVL
not listed: [6]
binds: all other assays above

B7: YB13-217 (antibody, V domains shown)
V domain 1: QVQLVESGGGVVQPGKSLRLSCTASGFTFSSHSMHWVRQAPGKGLDWVAVISFDGTKNYFADSLKGRFSVSRDNSRNTLYLQMNSLRVEDTAVYYCAREEGGSRMYHYYYGMDVWGQGTTVTVSS
V domain 2: QSVLTQPPSASGTPGQRVTISCSGSSSNIGTNTVNWYQQLPGTAPKLLIYTNNQRPSGVPDRFSGSKSGTSASLAIGGLQSEDEADYYCAAWDDSVSSYVFGTGTQVTAL
binds: all assays above

B8: YB12-187 (antibody, V domains shown)
VH: EVQLVESGGGLVKPGGSLRLSCAASGFIFSTYSMNWVRQAPGKGLEWVSSISSFSTYIYYADSVKGRFTISRDNAKNSLYLQMNSLRAEDTAVYYCASGQMYSGSYPSGDYFDYWGQGTLVTVSS
VL: LSVLTQPPSVSGAPGQRVTISCTGSSSNIGADYDVHWYQQLPGTAPKLLIYGNTNRPSGVPDRFSGSKSGTSASLAITGLQAEDEAHYYCQSYDTSLSGVVFGGGTKLTVL
binds: all assays above

B9: YB12-203 (antibody, V domains shown)
VH: QIQLQQSGPGLVEPSQTLSLTCAISGDSVSSISAAWNWIRQSPSRGLEWLGRTYYRSKWYNDYAVSVKSRITINPDTSKNQFSLHLNSVTPEDTAVYYCARDHLRWDIVATSLEAFDIWGQGTMVTVSS
VL: DIVMTQSPDSLAVSLGERATINCKSSQSVLFSSNNKNSLAWYQQKPGQPPKLLIYWASTRESGVPDRFSGSGSGTDFTLTISSLQAEDVAVYYCQQYHSSLLYTFGQGTKLEIK
not listed: [3] | [6]
binds: all other assays above

B10: YB9-102 (antibody, V domains shown)
VH: EVQLLESGGGLVQPGGSLRLSCTASGFTFRYYAMTWVRQAPGKGLEWVSVIIGSGGDTYYADSVKGRFTISRDNSKNTLYLQMDSLRAEDTAVYYCATGELELGTCYFDYWGQGTLVTVSS
VL: DIQMTQSPSSVSASVGDRVTITCRASQGISSWLAWYQQKPGEAPKLLISAASSLQSGVPSRFSGSGSETDFTLTISSVQPEDFATYYCQQANSFPQAFGQGTKVEIK
binds: all assays above

B11: YB13-209 (antibody, V domains shown)
VH: EVQLVESGGGLVKPGGSLKLSCAASGFSFVNAWMSWVRQAPGKGLEWVGRIKDKIDGGTTDYAAPVKGRFSISRDDSKNMLYLQMTSLKTEDTAVYYCTTGYNWHYGIEYWGQGTLVTVSS
VL: DIQMTQSPSSLSASVGDRVTVTCRASQSINSYLNWYQQKPGKAPKLLIYAASSLQSGVPSRFSGSGSGTDFTLTISSLQAEDFATYYCQQSYSTPDTFGQGTKLEIK
binds: all assays above

B12: YB12-202 (antibody, V domains shown)
VH: EVQLVQSGAEVKKPGESLKISCKGSGYSFISYWIVWVRQMPGKGLEWMGIIYPGDSDTRYSPSFHGQVTISADKSFSTAYLQWSSLKASDTAMYYCATTPHLYGGADYWGQGTLVTVSS
VL: not shown
binds: all assays above

B13: YB13-291 (antibody, V domains shown)
V domain 1: QITLKESGPTLVKPTQTLTLTCTFSGFSLNTAGVAVGWIRQPPGKAREWLALIYWDDDQRYSPSLESRLTITKDTSKNLVVLTMTNMDPVDTATYYCAHPRYFSDNSAYYWIWGQGTMVTVSS
V domain 2: SYDLTQPPSVSVSPGQTATISCSGDALPKQYVYWYQQKPGQAPVLVIYKDSERPSGIPERFSGSNSGTTVTLTISGVQAEDEAEYYCQSADSSGFYVFGSGTQVTVL
not listed: [6]
binds: all other assays above
